# According to patent US20120222143:
# What was measured:
# Assay in all cases: cell_activity
# [1] = test system: DMDE6 TALEN pair (left and right) (synthetic construct); details: pig fibroblasts, day 3, co-transfected with DMDE7.1
# [2] = test system: DMDE7.1 TALEN pair (left and right, FokI homodimer) (synthetic construct); details: fibroblasts, day 3 SURVEYOR
# [3] = test system: p65 (RELA) TALEN pair (left and right) (synthetic construct); details: porcine zygotes, 10 ng/ul mRNA each TALEN, 16 of 56
# [4] = test system: ACAN12 TALEN pair (left and right, FokI homodimer) (synthetic construct); details: fibroblasts, day 3 SURVEYOR
# [5] = test system: btGDF83.1 TALEN pair (left and right) (synthetic construct); details: bovine fibroblasts, SURVEYOR; active at 30 and 37 C
substance,measurement,setting,value
DMD exon 6 target locus,activity,[1],24 % NHEJ
DMD exon 7 target locus,activity (% chromosomes cleaved (NHEJ)),[2],38
p65 target locus,activity (% embryos with indels),[3],29
ACAN12 target locus,activity (% chromosomes cleaved (NHEJ)),[4],25
GDF8 exon 3 target locus,activity (% chromosomes cleaved (NHEJ)),[5],< 16
